Test results: patent US6566113B1, “Polypeptide having cellobiohydrolase activity” (Takara Shuzo Co., Ltd., priority 1998, dated 2003)

Experiments:
[1] = target: polypeptide of the present invention (cellobiohydrolase, open reading frame PH1171) (Pyrococcus horikoshii, UniProt O58925); assay: Inhibition of pNPC-degrading activity by glucose, cellobiose and various reagents; assay type: biochemical, Pyrococcus horikoshii OT3; details: for inhibition of pNPC-degrading activity by dithiothreitol: up to 10 mM
[2] = target: Cellobiohydrolase from Thermotoga sp. FjSS-B.1; details: cellobiohydrolase of Thermotoga sp. FjSS-B.1; read-out: inhibition constant (Ki) for cellobiose; cited from earlier work
[3] = pNPC-degrading activity on synthetic substrate; assay type: biochemical; details: 5 mM pNPC, 98° C., 20 minutes, pH 6.0
Protocol: 50 μl of 10 mM pNPC solution in 0.1 M MES-NaOH buffer (pH 6.0) was added to 50 μl of the polypeptide solution of the present invention or a 2-, 5- 10- or 20-fold dilution thereof with 0.1 M MES-NaOH buffer (pH 6.0). The mixture was reacted at 98° C. for 20 minutes. Absorbance at 405 nm of a supernatant obtained by centrifugation was measured to determine the pNPC-degrading activity based on the amount of released p-nitrophenol (pNP).

[4] = CMC-degrading activity (reducing ends, Park and Johnson method); assay type: biochemical
Protocol: When cellulose is degraded using a cellulose hydrolase such as endoglucanase or cellobiohydrolase, reducing ends of glucose residues are newly generated. Then, increase in the amount of reducing end in a unit reaction time was measured according to the Park and Johnson method using carboxymethylcellulose (CMC) as a substrate in order to confirm whether or not a polypeptide having an activity of hydrolyzing cellulose which newly generates reducing ends of glucose residues existed in the Escherichia coli extract.
A CMC solution was prepared by dissolving CMC (Sigma) in 100 mM sodium citrate buffer (pH 5.0) at a concentration of 1%. […] Absorbance at 690 nm was then measured. The amount of reducing end was determined as the amount of corresponding glucose based on a calibration curve prepared using glucose at a known concentration. […]
50 μl of a 50-fold dilution of the polypeptide solution of the present invention with water, 25 μl of a 2% CMC aqueous solution and 25 μl of one of the above-mentioned buffers were mixed together. […] The amount of reducing sugar contained in a supernatant obtained by centrifuging the reaction mixture was measured according to the Park and Johnson method, and the CMC-degrading activity was calculated. […]

[5] = pH and heat stability: remaining CMC-degrading / cellobiohydrolase activity after heating; assay type: biochemical
Protocol: 25 μl of the polypeptide solution of the present invention and 25 μl of one of the buffers prepared in Example 3-(1) were mixed together. The mixture was heated at 95° C. for 10 minutes. 50 μl of 1% CMC solution in 0.1 M MES-NaOH buffer (pH 6.0) was added to 50 μl of a 50-fold dilution of the heated mixture with water. The mixture was reacted at 98° C. for 20 minutes. The amount of reducing sugar contained in a supernatant obtained by centrifuging the reaction mixture was measured according to the Park and Johnson method, and the CMC-degrading activity was calculated.
CMC was dissolved in 0.1 M MES-NaOH buffer (pH 6.0) to prepare a 1% CMC solution (pH 6.0). 50 μl of the MES buffer was added to 50 μl of the polypeptide solution of the present invention. The mixture was heated at 95° C. for 0, 1, 5 or 24 hours. 50 μl of the 1% CMC solution was added to 50 μl of a 50-, 200- or 500-fold dilution of a supernatant obtained by centrifuging the heated mixture with the MES buffer. The mixture was reacted at 98° C. for 20 minutes. The amount of reducing sugar contained in the reaction mixture was measured according to the Park and Johnson method to determine the CMC-degrading activity.

[6] = 4-MUC-degrading activity, specific activity of purified polypeptide; assay type: biochemical; details: 98° C., pH 6.0, 20 minutes
Protocol: A supernatant obtained by centrifuging the heated supernatant was subjected to anion exchange chromatography using HiTrap Q column (Pharmacia). The sample was applied to two 5 ml HiTrap Q columns connected in series. Elution was carried out using a linear gradient in 20 minutes from 50 mM MES-NaOH buffer (pH 6.0) to the same buffer containing 200 mM NaCl at a flow rate of 2 ml/minute. 50 μl of 6 mM 4-MUC solution in 100 mM MES-NaOH buffer (pH 6.0) was added to 50 μl of one of the serial dilutions of the respective fractions. The mixture was reacted at 98° C. for 20 minutes. Fluorescence value was measured at an excitation wavelength of 355 nm and an emission wavelength of 460 nm. The 4-MUC-degrading activity was calculated based on the amount of released 4-MU.
2 ml of the active fraction from the hydrophobic column chromatography was desalted by ultrafiltration, lyophilized and then hydrolyzed in the presence of gas-phase HCl at 135° C. for 3 hours. The hydrolysate was dissolved in 100 μl of water. […] The polypeptide corresponding to 60 mU of the 4-MUC-degrading activity was subjected to the amino acid analysis. Thus, the specific activity was determined to be 17.0 U/mg.

[7] = Identification of hydrolysis products by silica gel thin-layer chromatography; assay type: biochemical
Protocol: The activity of hydrolyzing cellulose of the expressed polypeptide was identified as follows. Specifically, the expressed polypeptide solution was allowed to act on various substrates. Products were then identified on thin-layer chromatography.
75 μl of the expressed polypeptide solution was added to 75 μl of the phosphoric acid-swollen cellulose. The mixture was reacted at 98° C. for 8 hours. 60 μl of acetonitrile was added to the equal volume of the reaction mixture and mixed. A supernatant obtained by centrifugation was evaporated under reduced pressure to dryness. The residue was dissolved in 10 μl of water. 2 μl of the solution was subjected to silica gel thin-layer chromatography. Two rounds of development were carried out using silica gel 60F254 (Merck) as a thin-layer plate and ethanol:butanol:water=5:5:1 as a solvent for development. Orcinol-sulfuric acid reagent was sprayed onto the thin-layer plate after development and the plate was heated using a hot plate to observe the spots. […]
Reactions were carried out as described above using oligosaccharides as substrates except that the dilution rate of the expressed polypeptide solution was 10 and the reaction time was 2 hours. Supernatants obtained by centrifuging the reaction mixtures were analyzed on silica gel thin-layer chromatography as described above.

O[C@H](CS)[C@H](O)CS (racemic) [DTT, dithiothreitol]
inhibition of pNPC-degrading activity by dithiothreitol ([1]; 5 mM pNPC, 98° C., pH 6.0): not inhibited | inhibition of pNPC-degrading activity by dithiothreitol ([1]; 5 mM pNPC, 98° C., pH 6.0, listed as dithiothreitol): Almost no inhibition

O=C(O)CN(CCN(CC(=O)O)CC(=O)O)CC(=O)O [EDTA, ethylenediaminetetraacetic acid]
inhibition at 1000 µM ([1]; pH 6, read-out: inhibition of pNPC-degrading activity): ~50% | inhibition of pNPC-degrading activity ([1]; reagent at 1 mM, 5 mM pNPC, 98° C., pH 6.0): about 50%

O=C[C@H](O)[C@@H](O)[C@H](O[C@@H]1O[C@H](CO)[C@@H](O)[C@H](O)[C@H]1O)[C@H](O)CO [cellobiose]
Ki [2]: 200 µM

B1: polypeptide of the present invention: polypeptide of SEQ ID NO:1 with thermostable cellobiohydrolase activity, expressed from open reading frame PH1171 of Pyrococcus horikoshii OT3 (protein)
chain: ENTTYQTPTGIYYEVRGDTIYMINVTSGEETPIHLFGVNWFGFETPNHVVHGLWKRNWEDMLLQIKSLGFNAIRLPFCTESVKPGTQPIGIDYSKNPDLRGLDSLQIMEKIIKKAGDLGIFVLLDYHRIGCTHIEPLWYTEDFSEEDFINTWIEVAKRFGKYWNVIGADLKNEPHSVTSPPAAYTDGTGATWGMGNPATDWNLAAERIGKAILKVAPHWLIFVEGTQFTNPKTDSSYKWGYNAWWGGNLMAVKDYPVNLPRNKLVYSPHVYGPDVYNQPYFGPAKGFPDNLPDIWYHHFGYVKLELGYSVVIGEFGGKYGHGGDPRDVIWQNKLVDWMIENKFCDFFYWSWNPDSGDTGGILQDDWTTIWEDKYNNLKRLMDSCSKSSSSTQSVIRSTTPTKSNTSKKICGPAILIILAVFSLLLRRAPR
modifications: Pyrococcus horikoshii OT3
pNPC-degrading activity versus amount of polypeptide [3]: increased depending on the concentration | activity relative to that in the presence of 0.5 M NaCl ([4]; 2.5 M NaCl): about 60% | activity relative to that in the presence of 0.5 M NaCl ([4]; absence of NaCl): about 80% | activity after heating in the absence of a substrate ([5]; 95° C. for 10 minutes at pH 5 to 7): not decreased | retained CMC-degrading activity after heating ([5]; 95° C. for 24 hours, pH 6.0): about 90% | remaining activity after heating ([5]; 95° C., pH 6, heating for additional 24 hours): About 80% | retained activity after heating ([5]; in the presence of a substrate at pH 6 at 95° C. for 5 hours): about 90% | retained cellobiohydrolase activity after heat treatment ([5]; treatment at 75° C. for 20 minutes): ≥ 80% | retained cellobiohydrolase activity after heat treatment ([5]; treatment at 95° C. for 10 minutes): ≥ 80% | retained cellobiohydrolase activity after heat treatment ([5]; treatment at 95° C. for 5 hours): ≥ 80% | specific activity (4-MUC-degrading activity) [6]: 17.0 U/mg | product from phosphoric acid-swollen cellulose (TLC) ([7]; 98° C. for 8 hours): generation of cellobiose | product from cellooligosaccharides (TLC) ([7]; cellotriose, cellotetraose, cellopentaose, 10-fold dilution, 98° C., 2 hours, pH 6.0): principal degradation product was cellobiose
